What all share (assay): TurboID biotin proximity labelling with mass spectrometry
Holding throughout (settings): 3rd instar larval muscle tissue (mef2-Gal4); parent: 1

In assay [1] the target is Troponin-C.
Assay [2] concerns the target SesB.
In assay [3] the target is ATPsynD, SynO.
Assay [4] addresses Prohibitin2.

For the substance “Dmel\Tmem43wt::TurboID (from UniProt Q9VSB9) p.S333L”, the ratio to parent in assay [1] came out at 0.07; in assay [2], 0.29; in assay [3], 0.3; in assay [4], 0.18.
